{
  "source": "patent US20180280549A1",
  "about": "(METAFORA BIOSYSTEMS, published 2018)",
  "binders": {"B1": {"name": "HERV-W.RBD.MFC (HERV-W.RBD, receptor-binding domain of the human endogenous retrovirus W envelope glycoprotein, fused to a mouse Fc fragment) (Fc fusion)", "chain": "APPPCRCMTSSSPYQEFLWRMQRPGNIDAPSYRSLSKGTPTFTAHTHMPRNCYHSATLCMHANTHYWTGKMINPSCPGGLGVTVCWTYFTQTGMSDGGGVQGSVDVPRDCGCKPCICTVPEVSSVFIFPPKPKDVLTITLTPKVTCVVVDISKDDPEVQFSWFVDDVEVHTAQTQPREEQFNSTFRSVSELPIMHQDWLNGKEFKCRVNSAAFPAPIEKTISKTKGRPKAPQVYTIPPPKEQMAKDKVSLTCMITDFFPEDITVEWQWNGQPAENYKNTQPIMDTDGSYFVYSKLNVQKSNWEAGNTFTCSVLHEGLHNHHTEKSLSHSPGK", "modifications": "I-125 on tyrosine or histidine residues in the in vivo experiment only (IODO-GEN method); unlabelled in flow cytometry", "notes": "The entry may begin with a signal peptide; also called I-125.HERV-W.RBD.MFC"}},
  "key": {"[1]": {"biological_target": "T1, ASCT2 (glutamine and other neutral amino acid transporter) (human, UniProt Q15758 1-541)", "T1 construct": "Endogenous transporter on human pancreatic tumor cell lines; also called human ASCT2", "T1 sequence": "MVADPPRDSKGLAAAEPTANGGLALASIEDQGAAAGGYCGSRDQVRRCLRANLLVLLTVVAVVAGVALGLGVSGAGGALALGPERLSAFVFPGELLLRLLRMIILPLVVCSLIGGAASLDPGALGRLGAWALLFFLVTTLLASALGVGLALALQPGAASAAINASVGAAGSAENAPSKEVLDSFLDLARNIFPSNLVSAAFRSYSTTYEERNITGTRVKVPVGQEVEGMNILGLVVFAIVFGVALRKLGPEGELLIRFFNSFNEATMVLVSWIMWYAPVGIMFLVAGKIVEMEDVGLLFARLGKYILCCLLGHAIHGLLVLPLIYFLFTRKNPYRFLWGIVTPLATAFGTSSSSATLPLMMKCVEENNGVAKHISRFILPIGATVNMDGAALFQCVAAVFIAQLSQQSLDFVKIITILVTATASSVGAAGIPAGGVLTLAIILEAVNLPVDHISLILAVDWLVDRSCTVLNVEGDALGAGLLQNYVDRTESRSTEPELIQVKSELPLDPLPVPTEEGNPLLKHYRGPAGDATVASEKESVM", "test": "flow cytometry on pancreatic tumor cell lines (endogenous transporter; ASCT-1/ASCT-2 is the target by Table 1), anti-mouse A647 detection; Capan1 also detected (data not shown)"}, "[2]": {"biological_target": "T2, ASCT1 (glutamate and neutral amino acid transporter) (human, UniProt P43007 1-532)", "T2 construct": "Endogenous transporter on human pancreatic tumor cell lines; also called human ASCT1", "T2 sequence": "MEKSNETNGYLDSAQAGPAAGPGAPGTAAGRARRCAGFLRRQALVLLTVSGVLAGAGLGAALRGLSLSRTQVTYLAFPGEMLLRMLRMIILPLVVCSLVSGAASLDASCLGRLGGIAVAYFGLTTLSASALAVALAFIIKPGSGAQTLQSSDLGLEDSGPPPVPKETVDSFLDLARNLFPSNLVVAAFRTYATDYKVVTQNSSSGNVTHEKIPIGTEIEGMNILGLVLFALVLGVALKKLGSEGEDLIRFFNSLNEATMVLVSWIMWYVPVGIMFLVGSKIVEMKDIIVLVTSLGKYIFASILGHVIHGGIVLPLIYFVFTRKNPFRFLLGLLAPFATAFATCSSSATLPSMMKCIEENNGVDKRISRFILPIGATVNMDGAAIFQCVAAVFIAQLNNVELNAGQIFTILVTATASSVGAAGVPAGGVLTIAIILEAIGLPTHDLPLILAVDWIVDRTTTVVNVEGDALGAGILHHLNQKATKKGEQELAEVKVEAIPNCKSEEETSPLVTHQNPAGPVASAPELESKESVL", "test": "flow cytometry on pancreatic tumor cell lines (endogenous transporter; ASCT-1/ASCT-2 is the target by Table 1), anti-mouse A647 detection; Capan1 also detected (data not shown)"}},
  "data": [
    {"binder": "B1", "values": [
      {"measurement": "binding result", "setting": "[1]", "value": "binds"},
      {"measurement": "binding result", "setting": "[2]", "value": "binds"}
    ]}
  ]
}
